The results in this text go back to PMC8103094, “Androgen receptor (AR) antagonism triggers acute succinate‐mediated adaptive responses to reactivate AR signaling”.

The data set deals with Androgen receptor DNA-binding domain (AR-DBD) (UniProt P10275 560-632). The data set is described as follows: EMSA; Odyssey infrared EMSA kit (LI-COR): 2.5 mM DTT/0.25% Tween 20, poly(dI.dC), room temperature 30 min, increasing protein; 6% TBE native gel; salt and pH not stated. The following applies: protein: recombinant; chain copies: 2; label: 5' IRDye700 on both strands; blunt.
Chain of Androgen receptor DNA-binding domain (AR-DBD) (P10275 560-632): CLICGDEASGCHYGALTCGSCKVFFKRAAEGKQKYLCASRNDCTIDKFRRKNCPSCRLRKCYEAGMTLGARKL

B1: SDHB ARE probe (dsDNA)
DNA 1: AGAGCTCCCTGTACTTTCCCAACA
DNA 2: TGTTGGGAAAGTACAGGGAGCTCT
Consider B1, for which the binding result is listed as “binds”.

B2: SDHA ARE probe (dsDNA)
DNA 1: GCGACTTGTGCTGGCTGAGGGA
DNA 2: TCCCTCAGCCAGCACAAGTCGC
As for B2, the binding result is “binds”.
